“Also recorded” adds a separate entry of the source.
Experiments:
COL1A2 promoter = test: Collagen promoter-CAT reporter construct in transfected fibroblasts; format: cell-based, human
Method: Production of collagen was measured in cell cultures utilizing the metabolic labeling of collagen with ^14C-proline as described by Luzina. I. G. Luzina et al. (2006) Am J Respir Cell Mol Biol. 35:298-305; I. G. Luzina et al. (2006) Arthritis Rheum. 54: 2643-2655. Briefly, fibroblast monolayers were pulsed with L-[U-^14C]-proline (Amersham Biosciences, Piscataway, N.J.) at 1 μCi/ml for the final 12 hours of incubation. Purified bacterial collagenase type III was purchased from Sigma Aldrich (St. Louis, Mo.). Fibroblasts were then ruptured by repeated freeze-thawing, and part of each sample digested with collagenase type III. The samples were pelleted with 20% TCA containing 0.1% L-proline, and then the pellets were resuspended and washed twice with 5% TCA and 95% ice-cold ethanol. The samples were assayed in a liquid scintillation counter in order to determine the amount of collagenase-digestible and non-digestible ^14C-labeled protein. Alternatively, collagen protein levels in cell culture supernatants were measured in Western blotting assays as described above. The activity of the COL1A2 promoter was measured in primary fibroblasts transfected with collagen promoter-chloramphenicol acetyltransferase (CAT) reporter constructs as described by Luzina. I. G. Luzina et al. (2006) Am J Respir Cell Mol Biol. 35:298-305. […]

[1] = test system: primary pulmonary fibroblasts; details: as reported by Luzina et al. 2006; cited from earlier work
[2] = test system: primary pulmonary fibroblasts; test: Collagen production in primary fibroblast cultures (14C-proline incorporation, Western blotting); format: cell-based, human; details: primary fibroblasts stimulated with rhBIGH3, various doses and times, 14C-proline incorporation and Western blotting
Method: (§1) Preparation of cell lysates, immunoprecipitation of BIGH3 protein, normalization of protein concentration in the samples with BioRad assays, electrophoretic separation and Western blotting were performed as previously described by Atamas. S. P. Atamas et al. (2003) Am J Respir Cell Mol Biol. 29:743-749. Goat antibodies for BIGH3 were purchased from R&D Systems (Minneapolis, Minn.). Goat antibodies for MMP14 were purchased from Santa-Cruz Biotechnology (Santa Cruz, Calif.). Western blotting assays for collagen were performed using rabbit affinity purified anti-collagen type I antibody (Rockland, Gilbertsville, Pa.).
Production of collagen was measured in cell cultures utilizing the metabolic labeling of collagen with ^14C-proline as described by Luzina. I. G. Luzina et al. (2006) Am J Respir Cell Mol Biol. 35:298-305; I. G. Luzina et al. (2006) Arthritis Rheum. 54: 2643-2655. […] Alternatively, collagen protein levels in cell culture supernatants were measured in Western blotting assays as described above. The activity of the COL1A2 promoter was measured in primary fibroblasts transfected with collagen promoter-chloramphenicol acetyltransferase (CAT) reporter constructs as described by Luzina. […]
To test this possibility, fibroblast cultures were incubated for various times with various doses of recombinant human BIGH3 (rhBIGH3), and the levels of collagen accumulation were measured. […]

COL1A2 mRNA = test: Real-time PCR of COL1A2 mRNA in fibroblasts; format: cell-based, human; details: BIGH3-treated vs control fibroblast cultures
Method: Total RNA purification, reverse transcription, and real-time PCR were performed using LightCycler (Roche, Indianapolis, Ind.), as previously described by Atamas. S. P. Atamas et al. (2003) Am J Respir Cell Mol Biol. 29:743-749. Quantification of internal control 18S ribosomal RNA was performed as reported previously by Luzina. I. G. Luzina et al. (2006) J Cell Physiol. 206:221-228. The PCR reaction mixture included the recommended components of the FastStart DNA Master Hybridization Probes Hot Start Reaction Mix (Roche, Indianapolis, Ind.). The fold difference in gene expression relative to 18S ribosomal RNA between treated and untreated cultures was calculated using the 2^−ΔΔCt method. I. G. Luzina et al. (2006) Arthritis Rheum. 54: 2643-2655. The primers and the hybridization probes for COL1A2 mRNA were designed and prepared by TIB Molbiol (Adelphia, N.J.). The primers for COL1A2 mRNA were: forward, 5′-GATGGTGAAGATGGTCCCACAGG-3′ (SEQ ID NO: 1) and reverse, 5′-GGTCGTCCGGGTTTTCCAGGGT-3′ (SEQ ID NO: 2). The hybridization probes were labeled with fluorescein at the 3′-terminus (3FL) of one probe and with LightCycler Red at the 5′-terminus (5LC) of the other probe. The probes were 3FL 5′-TTCCAAGGACCTGCTGGTGAGCCT-3′ (SEQ ID NO: 3) and 5LC 5′-TGAACCTGGTCAAACTGGTCCTGCAG-3′ (SEQ ID NO: 4). […]

Smad3/4, Sp1, AP1, Ets = test: Transcription factor array, DNA binding of collagen promoter regulators in fibroblasts; format: cell-based, human; details: BIGH3-stimulated vs control fibroblasts, transcription factor arrays
Method: Further experiments were performed to determine whether the increase in collagen levels stimulated by BIGH3 was due to transcriptional upregulation of the collagen gene expression.
(§2) Nuclear extracts from BIGH3-activated and control fibroblast cultures were prepared using nuclear extraction kit from Active Motif (Carlsbad, Calif.) and adjusted for total protein content using Bio-Rad assays. DNA binding by 345 different transcription factors was evaluated using protein/DNA TranSignal™ system (Panomics, Redwood City, Calif.), following the manufacturer's recommendations.

PU.1 = test: Transcription factor array, DNA binding by PU.1 in fibroblasts; format: cell-based, human; details: fibroblasts stimulated with 300 ng/ml rhBIGH3
Method: as §2

p53 = test: Transcription factor array, DNA binding by p53 in fibroblasts; format: cell-based, human; details: fibroblasts stimulated with 300 ng/ml rhBIGH3
Method: as §2

MMP14 = test: Western blotting for MMP14 protein in primary fibroblasts; format: cell-based, human; details: fibroblasts with 300 ng/ml rhBIGH3 for 24 h or 48 h
Method: as §1
Experiments were performed to determine whether BIGH3 upregulates collagen levels in fibroblast cultures by attenuating collagen turnover. To address such a possibility, experiments were performed in which primary fibroblasts were incubated for 6 h with or without 300 ng/ml BIGH3. The expression levels of 84 genes related to connective tissue biology were analyzed using reverse transcriptase—real time PCR approach (RT^2 Profiler™ SuperArray, Frederick, Md.). […] These experiments were repeated on three independent occasions with primary fibroblast cultures from different donors, with consistent results. MMP14 is a critical factor for collagen turnover by fibroblasts. H. Lee et al. (2006) Mol Biol Cell. 17:4812-4826. […]

[3] = test system: matrix metalloproteinase 2 (MMP2); test: MMP2 levels in primary fibroblast cultures; format: cell-based, human; details: primary fibroblast cultures stimulated with recombinant BIGH3

| Molecule | response of collagen promoter-CAT reporter construct (COL1A2 promoter) | concentration of active TGF-β required for upregulation of collagen production [1] | collagen protein levels [2] | collagen protein levels ([2]; listed as recombinant BIGH3) | collagen (COL1A2) mRNA steady-state levels (COL1A2 mRNA) | DNA binding activity of Smad3/4, Sp1, AP1, Ets (Smad3/4, Sp1, AP1, Ets) | DNA binding by PU.1 (PU.1) | DNA binding by PU.1 (PU.1; listed as BIGH3) | DNA binding by p53 (p53) | DNA binding by p53 (p53; listed as BIGH3) | MMP14 protein levels (MMP14) | MMP2 levels [3] |
| --- | --- | --- | --- | --- | --- | --- | --- | --- | --- | --- | --- | --- |
| TGF-β [reference compound] | responsive | at least 500 pg/ml |  |  |  |  |  |  |  |  |  |  |
| rhBIGH3: recombinant human BIGH3 (TGFBI, keratoepithelin), a 68 kDa extracellular matrix protein (protein, UniProt Q15582 24-683, looked up) Transforming growth …: GPAKSPYQLVLQHSRLRGRQHGPNVCAVQKVIGTNRKYFTNCKQWYQRKICGKSTVISYECCPGYEKVPGEKGCPAALPLSNLYETLGVVGSTTTQLYTDRTEKLRPEMEGPGSFTIFAPSNEAWASLPAEVLDSLVSNVNIELLNALRYHMVGRRVLTDELKHGMTLTSMYQNSNIQIHHYPNGIVTVNCARLLKADHHATNGVVHLIDKVISTITNNIQQIIEIEDTFETLRAAVAASGLNTMLEGNGQYTLLAPTNEAFEKIPSETLNRILGDPEALRDLLNNHILKSAMCAEAIVAGLSVETLEGTTLEVGCSGDMLTINGKAIISNKDILATNGVIHYIDELLIPDSAKTLFELAAESDVSTAIDLFRQAGLGNHLSGSERLTLLAPLNSVFKDGTPPIDAHTRNLLRNHIIKDQLASKYLYHGQTLETLGGKKLRVFVYRNSLCIENSCIAAHDKRGRYGTLFTMDRVLTPPMGTVMDVLKGDNRFSMLVAAIQSAGLTETLNREGVYTVFAPTNEAFRALPPRERSRLLGDAKELANILKYHIGDEILVSGGIGALVRLKSLQGDKLEVSLKNNVVSVNKEPVAEPDIMATNGVVHVITNVLQPPANRPQERGDELADSALEIFKQASAFSRASQRSVRLAPVYQKLLERMKH | no differences were observed; also recorded: non-responsive |  | directly regulated collagen production; also recorded: Increases in collagen protein levels | upregulation of collagen protein | no differences in steady-state levels; also recorded: did not stimulate an increase in collagen mRNA | no differences were detected; also recorded: no increase in the activity | significant upregulation | increased | downregulation | decreased | decreased significantly | downregulation |

Source: US20090124570A1, “Methods and Compositions for Facilitating Tissue Repair and Diagnosing, Preventing, and Treating Fibrosis” (University of Maryland, Baltimore, priority 2007, published 2009)
